“Also recorded” adds a separate entry of the source. Peptide text beside a SMILES is read from it. * marks the point of attachment. Cbz = O=C(OCc1ccccc1)*; CH2F = FC*
Assays:
[1] = tested on: human monocyte-derived osteoclasts; assay: Osteoclast fusion assay (number of fusion events, fluorescence microscopy); type: cell-based; conditions: for osteoclast multinucleation / fusion: screen of La 188-375 peptide library, control no addition; for formation of multinucleated syncytia (osteoclast fusion): recombinant protein ~40 nM added end of day 2 post-RANKL, overnight
Description: Osteoclasts: Elutriated monocytes from healthy donors were obtained. Cells were plated at 2.9×10^5 per cm^2 in 35 mm dishes with polymer coverslip bottoms (Ibidi #81156) for imaging or 35 mm or 10 cm dishes for biochemical experiments in complete media [α-MEM supplemented with 10% Fetal Bovine Serum (FBS) and penicillin-streptomycin-L-glutamine (Gibco Invitrogene #12571063; #26140079 and #10378016, respectively)]. Monocytes were differentiated to M2 macrophages in the presence of 100 ng/ml M-CSF for 6 days and then differentiated with 100 ng/ml M-CSF and 100 ng/ml RANKL for 3 days unless indicated otherwise. RAW 264.7 cells (ATCC, Manassas, VA, #TIB-71) were maintained in DMEM supplemented with 10% FBS to a maximum of 8 passages. RAW 264.7 cells were differentiated to osteoclasts in the presence of 100 ng/ml murine RANKL for 5 days. To separate unfused mononucleated and fused, multinucleated RAW 264.7 cells into separate fractions, advantage was taken of the much stronger adherence of multinucleated cells to culture dish plastic. After washing in PBS, mixed RAW cultures (following RANKL differentiation) were left in Ca^2+ and Mg^2+ free PBS for 10 minutes at room temperature. Culture dishes were then tapped on the lab bench and a large portion of unfused, mononucleated RAW cells were released, and these released cells were collected via centrifugation. This process was repeated 2-4 times until dishes were left with a population of primarily fused, multinucleated syncytia. Mononucleated and multinucleated cell fractions were then processed for biochemical or imaging experiments as described below.
Constructs & Recombinant proteins & Transfection: Recombinant La 1-408, 1-375, 1-375 Q20A_Y24A_D33I, 1-187 and 188-375 were amplified with primers designed with overlapping sequences and inserted between NdeI/HindIII in the V78 pET28A E. coli expression vector, adding to each a N-terminal 6×his affinity tag. La 1-408 was expressed as a recombinant protein in E. coli and purified using IMAC columns by SD Biosciences (San Diego, CA). The remaining constructs were transformed into BL2 (DE3) chemically competent E. coli (Thermo Fisher Scientific) and protein expression was induced with IPTG. Cells were lysed with Bugbuster (Sigma), and 6×his-La proteins were affinity purified using HisPur Cobalt Spin columns (Thermo Fisher Scientific), each according to the manufacturer's instructions. Endotoxin contaminates were depleted from affinity purified 6×his-La proteins using Pierce high-capacity endotoxin removal columns (Thermo Fisher Scientific), according to the manufacturer's instructions. Proteins were then sterile filtered, aliquoted and kept at −80 C.
Plasmids were introduced into primary osteoclasts at day 2 of RANKL stimulation via jetPRIME (Polyplus Transfection). FLAG-La 1-408, FLAG-La 1-375 and FLAG-La 1-375 Q20A_Y24A_D33I plasmids were a gift of the Maraia Lab (NICHD). Briefly, SSB (UniProt P05455) was inserted between HindIII and BamHI the pFLAG-CMV2 vector (Sigma). “Uncleavable” La was produced by taking the FLAG-La 1-408 plasmid and making two point mutations at amino acids D371A and D374A, abrogating the caspase cleavage sites at the C-terminal region of the protein (Emory Integrated Genomics Core). siRNA were introduced into primary osteoclasts after 1 day of RANKL stimulation via Lipofectamine RNAiMAX (Thermo Fisher Scientific). Non-targeted (Cat #4390843) and SSB-targeted (Cat #4392420_ID:s13469) siRNA were introduced at a concentration of 5 ng/ml (Silencer Select, Ambion).
Fusion Assays: Osteoclast fusion in the culture systems was evaluated by fluorescence microscopy (Verma et al., J Biol Chem 293, 254-270, doi:10.1074/jbc.M117.809681 (2018)). Briefly, cells were fixed with 4% paraformaldehyde at timepoints of interest, permeabilized with 0.1% TRITON™ X-100 and blocked with 5% FBS. Cells were then stained with phallodin-ALEXAFLURO®488 and Hoechst to label cells' actin cytoskeleton and nuclei, respectively. […]

[2] = tested on: production of LMW La in human osteoclasts; assay: La cleavage and localization in differentiating osteoclasts with caspase inhibitor (Western blot, immunofluorescence); type: cell-based; conditions: for production of LMW (cleaved) La: Western blot, differentiating human osteoclasts, Day 3-4 post-RANKL
Description: To identify the functional form of La associated with osteoclastogenesis, the relationship was determined between the appearance of LMW La and fusion between osteoclasts. During apoptotic progression human La is cleaved by caspases at […], removing La's NLS (Rutjes et al., Cell Death Differ 6, 976-986, doi:10.1038/sj.cdd.4400571 (1999); Ayukawa et al., J Biol Chem 275, 34465-34470, doi:10.1074/jbc.M003673200 (2000)).
Biochemical approaches: Cells were lysed on ice via pulse sonication and rotated end over end at 4° C. for 45 minutes in the presence of protease inhibitors (cOmplete, Sigma, #118361700010). Steady-state protein levels were evaluated via SDS-PAGE followed by immunoblotting. Bulk proteins were evaluated via SDS-PAGE followed by silver stain (SilverQuest, Thermo Fisher Scientific). Bands of interest were cut from silver stained gels, destained and evaluated by liquid chromatography coupled with tandem mass spectrometry (Proteomics Core, NHLBI). The selective enrichment of cytosolic vs membrane associated protein fractions was carried out using MEM-PER™ Plus Membrane Protein Extraction Kit (Thermo Fisher Scientific, catalogue #89842) according to the manufacturer's instructions.
Fluorescence Microscopy Imaging: In the immunofluorescence experiments the cells were washed with PBS and fixed with warm freshly prepared 4% formaldehyde in PBS (Sigma, F1268) at 37° C. The cells were washed three times with PBS. To permeabilize the cells, they were incubated for 5 min in 0.1% TRITON™ X100 in PBS. The cells were again washed three times with PBS and placed into PBS with 10% FBS, for 10 min at the room temperature to suppress non-specific binding. Then the cells were incubated with primary antibodies for 1 hour in PBS with 10% FBS. […]

[3] = biological target: T1, Anx A5 on PS containing liposomes (Homo sapiens, UniProt P08758); assay: Liposome binding assay
T1 sequence (P08758 1-320): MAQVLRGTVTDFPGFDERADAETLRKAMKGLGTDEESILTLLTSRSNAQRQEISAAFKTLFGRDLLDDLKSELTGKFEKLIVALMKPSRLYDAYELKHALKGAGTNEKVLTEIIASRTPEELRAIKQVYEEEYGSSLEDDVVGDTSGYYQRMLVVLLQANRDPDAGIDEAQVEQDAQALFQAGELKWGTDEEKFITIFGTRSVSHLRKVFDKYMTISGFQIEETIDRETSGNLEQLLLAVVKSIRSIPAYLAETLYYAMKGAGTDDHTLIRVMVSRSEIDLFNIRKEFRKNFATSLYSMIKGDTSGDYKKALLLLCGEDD
Excerpt: Anx A5 binds to PS containing membranes in a Ca^2+-dependent manner. Recombinant La was introduced alone or along with recombinant Anx A5 to PS containing liposomes and pelleted liposomes by centrifugation to evaluate whether La was enriched with liposomes or in supernatant (FIG. 12C).
Liposome binding assay: Multilamellar liposomes were formed from pure PC or 9:1 (w/w) mixture of PC and PS. Both lipid compositions were supplemented with 0.5 mol % of lissamine rhodamine phosphatidylethanolamine. To prepare liposomes, lipid stock in benzene/methanol (95:5) was frozen in liquid nitrogen and freeze-dried overnight using SPEEDVAC™ (Savant). Dried lipid was resuspended in aqueous buffer (100 mM NaCl, 10 mM Hepes, pH 7.0) at 1 mM total lipid concentration and vortexed. Proteins and CaCl2 were added to the liposomes and the mixtures were incubated on ice for 30 minutes. To pellet, liposomes were centrifugated at 15,000 g for 20 minutes to pellet, based on rhodamine fluorescence ˜95% of liposomes. Centrifugated samples were then fractionated into a top, liposome-depleted fraction and a bottom fraction containing liposomes and liposome-bound proteins. Fractions were then solubilized via addition of Laemmli buffer (Bio Rad) and separated via SDS-PAGE, as described above. Recombinant La and recombinant Anx A5 were detected via their n-terminal 6×His tag via α-6×His antibody (Abcam) and signals for soluble vs liposome bound protein fractions were evaluated via densitometry. Data were presented as a percentage of protein signal bound to liposomes where: […]

Molecule | osteoclast multinucleation / fusion [1] | formation of multinucleated syncytia (osteoclast fusion) [1] | further results
COC(=O)C[C@H](NC(=O)[C@H](C)NC(=O)[C@@H](NC(=O)OCc1ccccc1)C(C)C)C(=O)CF [z-VAD, z-VAD-fmk] (Cbz-Val-Ala-Asp(OMe)-CH2F) | – | – | ability of osteoclasts to form multinucleated syncytia ([1]; pan caspase inhibitor vs vehicle, Day 3 post-RANKL): significantly perturbed; production of LMW (cleaved) La [2]: blocked; production of LMW (cleaved) La ([2]; listed as z-VAD-fmk): block the production of cleaved La; localization of FL La ([2]; α-FL La immunofluorescence, Day 3): premature retention of FL La within the nuclei
AKLRAKQEQEAKQKLEEDAEMKSLEEKIGC (inhibitory La peptide) [Peptide 2] | inhibit fusion and the formation of multinucleated osteoclasts; also recorded: specifically inhibit | – | –
Anx A5: recombinant annexin A5, PS-binding peripheral membrane protein [reference compound] | – | – | pelleting with liposomes ([3]; PS containing liposomes, La with Anx A5, Ca^2+): pelleted with liposomes; pelleting with liposomes ([3]; liposomes lacking PS): neither La nor Anx A5 pelleted
GEVEKEALKKIIEDQQESLNKWKSKGRRFK (inhibitory La peptide) [Peptide 9] | inhibit fusion and the formation of multinucleated osteoclasts; also recorded: specifically inhibit | – | –
La 1-408: recombinant full-length human La protein, N-terminal 6×his tag (protein, listed as Homo sapiens, N-terminal 6xHis tag, recombinant full-length human La protein, N-terminal 6×his tag) MAENGDNEKMAALEAKICHQIEYYFGDFNLPRDKFLKEQIKLDEGWVPLEIMIKFNRLNRLTTDFNVIVEALSKSKAELMEISEDKTKIRRSPSKPLPEVTDEYKNDVKNRSVYIKGFPTDATLDDIKEWLEDKGQVLNIQMRRTLHKAFKGSIFVVFDSIESAKKFVETPGQKYKETDLLILFKDDYFAKKNEERKQNKVEAKLRAKQEQEAKQKLEEDAEMKSLEEKIGCLLKFSGDLDDQTCREDLHILFSNHGEIKWIDFVRGAKEGIILFKEKAKEALGKAKDANNGNLQLRNKEVTWEVLEGEVEKEALKKIIEDQQESLNKWKSKGRRFKGKGKGNKAAQPGSGKGKVQFQGKKTKFASDDEHDEHDENGATGPVKRAREETDKEEPASKQQKTENGAGDQ | – | significantly promoted | –
heat-inactivated La 1-408: recombinant heat-inactivated La 1-408 (protein, UniProt P05455 1-408, looked up, full-length heat-inactivated) MAENGDNEKMAALEAKICHQIEYYFGDFNLPRDKFLKEQIKLDEGWVPLEIMIKFNRLNRLTTDFNVIVEALSKSKAELMEISEDKTKIRRSPSKPLPEVTDEYKNDVKNRSVYIKGFPTDATLDDIKEWLEDKGQVLNIQMRRTLHKAFKGSIFVVFDSIESAKKFVETPGQKYKETDLLILFKDDYFAKKNEERKQNKVEAKLRAKQEQEAKQKLEEDAEMKSLEEKIGCLLKFSGDLDDQTCREDLHILFSNHGEIKWIDFVRGAKEGIILFKEKAKEALGKAKDANNGNLQLRNKEVTWEVLEGEVEKEALKKIIEDQQESLNKWKSKGRRFKGKGKGNKAAQPGSGKGKVQFQGKKTKFASDDEHDEHDENGATGPVKRAREETDKEEPASKQQKTENGAGDQ | – | not observed | –
La 1-187: recombinant N-terminal half of La 1-375 (protein, UniProt P05455 1-187, looked up, fragment) MAENGDNEKMAALEAKICHQIEYYFGDFNLPRDKFLKEQIKLDEGWVPLEIMIKFNRLNRLTTDFNVIVEALSKSKAELMEISEDKTKIRRSPSKPLPEVTDEYKNDVKNRSVYIKGFPTDATLDDIKEWLEDKGQVLNIQMRRTLHKAFKGSIFVVFDSIESAKKFVETPGQKYKETDLLILFKDD | – | no effect | –
La 188-375: recombinant amino acids 188-375 of human La (protein, listed as Homo sapiens) YFAKKNEERKQNKVEAKLRAKQEQEAKQKLEEDAEMKSLEEKIGCLLKFSGDLDDQTCREDLHILFSNHGEIKWIDFVRGAKEGIILFKEKAKEALGKAKDANNGNLQLRNKEVTWEVLEGEVEKEALKKIIEDQQESLNKWKSKGRRFKGKGKGNKAAQPGSGKGKVQFQGKKTKFASDDEHDEHDE | promoted fusion | greatly promoted | –

Reference: patent US20240041978A1, “LA PROTEIN AS A NOVEL REGULATOR OF OSTEOCLASTOGENESIS” (The U.S.A., as Represented by the Secretary, Department of …, priority 2021, published 2024)
